Laboratory results published in article PMC5549892.

Target: BG505 SOSIP.664 gp140 envelope glycoprotein trimer (HIV-1 (BG505))
Test: native gel or EMSA

BG505 SOSIP.664 gp140 envelope glycoprotein trimer (complex)
stoichiometry N: 3
